Columns and labels:
[1] = target: PhoP-HA protein, purified (Salmonella enterica serovar Typhimurium (strain 14028s)) (UniProt D0ZV90); assay: pull-down
[2] = target: T1, PhoP-HA protein, purified (Salmonella enterica serovar Typhimurium …, UniProt D0ZV90 1-224); assay: pull-down
T1 sequence: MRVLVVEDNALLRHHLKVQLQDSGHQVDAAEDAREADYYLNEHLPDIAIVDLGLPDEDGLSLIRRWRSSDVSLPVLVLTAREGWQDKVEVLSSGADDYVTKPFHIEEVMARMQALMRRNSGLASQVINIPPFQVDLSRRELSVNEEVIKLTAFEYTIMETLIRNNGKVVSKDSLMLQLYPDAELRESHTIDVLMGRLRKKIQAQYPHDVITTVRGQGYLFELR

## ClpS-FLAG, in vitro synthesized (natural protein)
[1]
  IC50: 14.6 µM

B1: MgtC-FLAG, in vitro synthesized (natural protein)
chain: MEERMLMFPYILNLLAAMLLGALIGAERQWRQRMAGLRTNALVATGAAVFILSSMTTSPDSPGRIAAQIVSGIGFLGAGVIMREGMNVRGLNTAATLWCSAGIGVLCGLGQFKNALAATIIILCANILLREAAQRINQLPISAEGEKRYILKVTCNKEDESAVRQWLLNIVKEAAICLQGLGSVPAQEQGYKEIRAELVGHADYRKTRELIISRIGDNDNITAIHWSIDSQ
[2]
  IC50: 8.4 µM

From publication PMC5424706 (Molecular cell, 2017)
